In patent publication US20160017022A1 one finds double labeling of EGFP-MAL expressing cells data, which are given here for one substance.

The target of this test is EGFP-MAL stably expressed on CHO cells. Description: FACS, CHO cells stably expressing EGFP-MAL.

The substance “fluorescently labeled ETX (ETX^Alexa-647) (from UniProt Q02307 33-328) (ligand)” registered a double labeling of EGFP-MAL expressing cells of 100%.
